Laboratory results as given in article PMC2951365 (PLoS ONE, 2010).

Target: T1, ubiquitin (Ub) (UniProt P0CG48 1-76)
T1 construct: ubiquitin, the mature 76-residue product of the polyubiquitin precursor; Used 15N-labelled or unlabelled; also called monoUb; 15N-labeled Ub; source: E. coli (pET-3a-Ub), purified (acetic acid denaturation, SP XL column, Superdex-75)
Assay: NMR titration; 15N-Ub (~0.2 mM) titrated with increasing amount of GB1-tagged UIM peptides; 1H-15N HSQC; 20 mM phosphate, 100 mM NaCl, pH 6.5, 25°C; apparent KD from I13, K48 and L71 of Ub; for AT3-UIM12 a simplified 1:2 fit with the two UIM motifs binding Ub equally
Details: both partners purified

Kd: > 3000 µM
B1: GB1-fused AT3-UIM3 (residues 335-354) (domain or fragment)
chain: SEEDMLQAAVTMSLETVRND
modifications: GB1 carrier and C-terminal His6 left out. The template's polyQ length is not printed. The printed limits are applied to the 361-aa UIM3-containing form, where they span the whole UIM3 and correspond …
